Experimental data from the DeepSol protein solubility set.

assay: soluble on expression in E. coli; label from the status in PepcDB or PDB records

Sequence | soluble on expression in E. coli
MSAQYDLYETPDIKQTGEKQPLHPRIVPKGTIGQDEFLDRVHKFTGISRSLLAGAMQSFQNELKDLLANGWIVELGEIGYFSVSLQGPPVMHKKDVRAQSIKLKNINYLPTKQFKREVGYDMRLERTESLTRPKGNGRSEAECLALITAHLEKYPCMTRTDYCHMTGHDKKRALKELNAFIEKEILMRYGAGKQVVYAKKMI | not soluble
MGSDKIHHHHHHMINEQRLLNTFLELVQIDSETGNESTIQPILKEKFIALGLDVKEDEAAKHPKLGANNLVCTMNSTIEEGEVPKLYLTSHMDTVVPAINVKPIVKDDGYIYSDGTTILGADDKAGLAAMLEVLQVIKEQQIPHGQIQFVITVGEESGLIGAKELNSELLDADFGYAIDASADVGTTVVGAPTQMLISAKIIGKTAHASTPKEGVSAINIAAKAISRMKLGQVDEITTANIGKFHGGSATNIVADEVILEAEARSHDPERIKTQVKHMTDVFETTASELGGKAEVTVEQSYPGFKINDNEAVVKIAQESARNLGLSANTIISGGGSDGSIINTFGIPSVILGVGYEKIHTTNERMPIKSLNLLASQVLEIIKIVARQSK | not soluble
MEYSDIRDRILLATLPNVPFDGWSGKALRLGAESAGFDREAADRAFPGGPAEAVGHFIDLANRMMEADLGARDLSGLKLPEKIHLAIKLRLERWAGDREAVRRGLALLSLPGHARLSLKSTYATVDGIWHAVGDRSVDFSFYTKRAELAAIYGATLLVWLEDTSEESAETWAFLDRRLEGVIRLRKARAKLRERMTHLPTLPRLLNPLDLVRKPFGLMRSMRMRLEHHHHHH | soluble
MTTIASFPILQLPEKSLKIAIQSLTLEELIKFSLISKSTKRAAESLNLQADPFCDLY | not soluble
MSLNDILNEFIDKYFPLSNEPLLPDFKDLNYPENLPTLVIDLNYVIAKLEYDRKTGWRVLKRPYADRFFKELSSFYEIVIWSDDNFPVAQEVISKWGIPAIGCLHRDQCSKKKKSYVKDLKRLGRNLDRVVIIDHDAKAFMLQPENGILIKEFHGDLNDKEMLCLIDLLKSFAISTHDISQFLKKHGGGDYNIGKRYLQQKEGHHHHHH | soluble
MGAFFVGAIWLTAAEAFCPAPKGLLPATVLRVVDGDTLHLKDGRRLRMIGLNAPELAGKGRPAEPFAEAARQRLRQLVAQSGGRVGLLPGRERQDRYGRVLAHVYGVTGINFEARLIAEGLAYRIAVLPNVALASCQKAAENHARRAGLGLWRRSPVLKAQQIHRAGFALFEGRVSRVQRNRGGLWITLQGQVVLRIAPNVLRRFDRRLLSGLSGRRIEARGWVVDRSRQPGRQSAHPRWMLSVTDPSMLGLILEHHHHHH | not soluble
GPGSMLRFTHRALTATPERFSVLGTTHPKPKRTGFGRNNKMRSKPSDNVAWYDKGPVEWLPRPVRLTYDHLDQLQQWMMRATLDGRTEEFNRIRDLHREWSQHPLMPVLGDVEPKFPLNLFKQNHRAKKRFLVRWHKANTPANWLWMPRGPTVVTPLHRTNPTQYPENWKQMVQRKSGTGTPS | not soluble
MGSDKIHHHHHHMSKIGETPLDMGLKDAIIGIFIWNKEKGIFEPFENRLRKKARALLEYYTDLANDELKPYVISKTIIDNVVDEIKDKTLIPLPNEPLRVAFPNCTLEWKISHGRYVPSFVLAEERTPEHFAFHYIPHKIHLEELVKINEEVLSARDIPIDLIEDLARRLCPKSLEVFKQWANEKWVTLFEIIGYTLFPKIEFRKAFMILGPRGTGKSTFINLIKKLLGRGNVVNIPLHILFGDKNRFVLAELYHKLVNAVSETKEYNLDDMDTLKVLTGGDRITADVKFKDPITFTPYAKLVIASNKPPTIRDKNDMAFWHRWLIIEFPNQFEDNTAWGDKTFTEDELEGILTVSILAFSRVLLHGKFDFEQTEEEVRGIWLSTIDYVYKFVKEKLKHGEIMITKNADDYVRVKELYRMYLEYCSTNGYNATTYKGFVRRLRDYFNLTVVMKNVEGKRFRAVVGIKINTVQTNETTGGDYGEFLNYILKNNHMIKEFADLVRDFGSTEKANVFIDFCTKKNMCFSRGIDAWEISIQPRGFSFL | not soluble
GSHMSYADSSRNAVLTNGGRTLRAECRNADGNWVTSELDLDTIIGNNDGHFQWGGQNFTETAEDIRFHPKEGAAEQPILRARLRDCNGEFHDRDVNLNRIQNVNGRLVFQ | soluble
MLATPGRFFEKFQKMDKVYRRFYQHELAEYQFTPNEIAVILFLYNNAPDLDTATDIVRCKGISKGLVARSVDSLCREGYLTAVREPADRRIMHLKLSEKSRPITERIAVKQKELAGKIECGITPEELRITSATLDKLLINTEQLLKGKENHAE | soluble
MGSDKIHHHHHHMKRVIINADDFGLSDGVNRAVIKAWQEGILTSASLMVGGDAFHEAVHLAKANPGLHVGLHLTLVQGRAVGEHGGFPSICDSKGAFSDDPVQTGMRYFFIRSFRKQLYREIEAQIVRFLQTGLPLSHVDGHLNIHMHPVVFDLLCGLMRKHGITTFRLCRENLRANLTLDRERRFGKMVDAFIFSKLAGRCRPILDHLGIGYAQEVKGLLNSGRMTEEYLLRVLDTLEDGTTELYFHPGCLPCAEITRRMPDYRHEEELAALMSPRVKGRLKELGIELGNYRGEVKTYV | not soluble
MSAKHPIIAVTGSSGAGTTTTSEAFRKMFNMMSIKPAWVEGDSFHRFTRPEMDVEIRKAREQGRHISYFGPQANDFPTLEEFFRQYGKVGTGQVRRYLHTFDEAVPYNQMPGTFTPWQSLPENSDVLFYEGLHGGVVDGDVNVAQHVDFLIGMVPIVNLEWIQKYVRDTRDRGHSREAVMDSIVRSMDDYLKFITPQFSRTHINFQRVPTVDTSNPLNAKGIPTLDESFVVIRFRGIKNVDFPYLLAMIDGSFMSRHNTIVVPGGKMSFAMDLIVRPLLQQLIETGKIG | not soluble
MLEEYRKHVAERAAEGIAPKPLDANQMAALVELLKNPPAGEEEFLLDLLTNRVPPGVDEAAYVKAGFLAAIAKGEAKSPLLTPEKAIELLGTMQGGYNIHPLIDALDDAKLAPIAAKALSHTLLMFDNFYDVEEKAKAGNEYAKQVMQSWADAEWFLNRPALAEKLTVTVFKVTGETNTDDLSPAPDAWSRPDIPLHALAMLKNAREGIEPDQPGVVGPIKQIEALQQKGFPLAYVGDVVGTGSSRKSATNSVLWFMGDDIPHVPNKRGGGLCLGGKIAPIFFNTMEDAGALPIEVDVSNLNMGDVIDVYPYKGEVRNHETGELLATFELKTDVLIDEVRAGGRIPLIIGRGLTTKAREALGLPHSDVFRQAKDVAESDRGFSLAQKMVGRACGVKGIRPGAYCEPKMTSVGSQDTTGPMTRDELKDLACLGFSADLVMQSFCHTAAYPKPVDVNTHHTLPDFIMNRGGVSLRPGDGVIHSWLNRMLLPDTVGTGGDSHTRFPIGISFPAGSGLVAFAAATGVMPLDMPESVLVRFKGKMQPGITLRDLVHAIPLYAIKQGLLTVEKKGKKNIFSGRILEIEGLPDLKVEQAFELTDASAERSAAGCTIKLNKEPIIEYLNSNIVLLKWMIAEGYGDRRTLERRIQGMEKWLANPELLEADADAEYAAVIDIDLADIKEPILCAPNDPDDARPLSAVQGEKIDEVFIGSCMTNIGHFRAAGKLLDAHKGQLPTRLWVAPPTRMDAAQLTEEGYYSVFGKSGARIEIPGCSLCMGNQARVADGATVVSTSTRNFPNRLGTGANVFLASAELAAVAALIGKLPTPEEYQTYVAQVDKTAVDTYRYLNFNQLSQYTEKADGVIFQTAV | soluble
MILDADIKTQLSQYLQLMENDILLKVSAGNDDVSKDMLALVDELATMSSKITVEKVELERTPSFSVNRPGEDTGVVFAGIPLGHEFTSLVLALLQVSGRAPKVEQKLIDQIKNIQGEYHFESYISLSCHNCPDVVQALNVMSVLNSGITHTMIDGAAFKEEVESKDIMAVPTVFLNGESFGSGRMTLEEILAKMGNGPDASELSDKDPYDVLVVGGGPAGASAAIYAARKGIRTGIVAERFGGQVMDTMGIENFISVKRTEGPKLVASLEEHVKEYDIDVMNLQRAKRLEKKELIEVELENGAILKSKSVIVSTGARWRNVGVPGEAEFKNKGVAYCPHCDGPLFTGKDVAVIGGGNSGIEAAIDLAGIVKHVTVLEFMPELKADAVLQERLNSLPNVTVLKNVQTKEITGTDKVNGISYIDRETEEVHHVELQGVFVQIGLVPNTDWLGETVERVRGEIVTDKHGATNVPGVFAAGDCTNNPYKQIIISMGSGANAALGAFDYLIRN | not soluble
MGSDKIHHHHHHMKIDDMDAFVAVIRCQSTNLAAEALQLTQPAITRRVQNFEEDLGATLLDRNTKPLKPTPMGLRVYEQCKAILREIDSLRELVANDGAPSGTLRLGVPQTLGDVVLLDALAQIREAYPQLRTQVTSGWGSSLIARMENGELDAAAALFPPGKIFPEGIASQSIARMPLRVVTAKGSAGKRSYKLKDCYTRGWVLNPDGCGFRAGLQRALSEQGLSLSINLETFGTELQLGLVANGQGLGLVPEPLLQTSRHRSALDVLNISDFKPQVDLWLFHPRYLGNLQEPVELFGEVAGHRLLG | not soluble
MNNFVKLGLTTGVVLSAIIPYGGVHAATEDLKVETKEDTFRTGNLTAPSQKSAENVVKDALKGKTEQALSSKQVNTESKVNYNVTQSRKSYDGTTLVRLQQTYEGRDVYGYQLTAHINDDGVLTSISGDSAQDLQQQEDLKQPIILSEEDAKKQLFKIYGDNLTFVEEPEIKQVVYVDENTNKATNAYQITFSASTPEYVSGTVLIDAFVGDLLKELVQKLGIQVDSSIVQSATANKSQDPSKLTGTGKDDLGMNRTFGITQRSDGTYTLADYSRGKGIETYTANYKDYNNYRRNVWGYLDDLVTSNSTNFTDPKAVSAHYLATKVYDFYKEKYSRNSFDNNGQKVISVVHGWNTNGKNIGNPKQWFNAFSNGAMLVYGDPIVRAFDVAGHEFTHAVTRNESGLEYAGEAGAINEALSDILGVAVEKYANNGKFNWTMGEQSGRIFRDMKNPSSISSRYPEDYRHYNNLPIDADHDYGGVHTNSSIINKVAYLIASGGNHNGVNVQGIGEDKMFDIFYYANTDELNMTSDFKELKEACIRVAMNLYGKDSLEVQAVQQAFKAAYI | not soluble
MVPSRNGEGTELRGHMEIEKELALEKKTYGSHIKILILGGPLSGKSTIFKQMQIIHVDGFKTDQELIQYRGLIDNNIRDIYLQLIAGSRVVGIPLDPIEHITYEIDEIYAPMSDAFSVRTISELLEPLTEFWNSKQIQEIYKRRCEFELLDSTKYYLENLTRIADPTYLPNQEDIVHSRKATMSINSIVFEYTGVSLLMIDVGGQRSERKKWLHLFDDAKVVLFVIDLTGYAKRSEESRMELSRFPKFFRDVGSNAYDMKVALKIFNEVAAASALANAVFLLFFNKVDLFKEILSQVNLQPCFSKFDGENTYEETSKYICEKFIRAASSKKSVFPHFTTATNTENVKLVFRACMESVFKANAKATGLS | not soluble
MSLTQMPNVHDAEPIPEAARAEIDRLLLSGDLFRYTAPQDAPVALLEREFAALLGTKYALAVSSCSAALFLSLKALDLPRDARVLIPGFTFAAVPSSVVHADCVPVLCEVGENYRIDMADFKARLDDVQAVIVSHMRGHTSDMDAILSLCAARDIPVVEDAAHSLGTLWHGEKIGTLGRVGCFSFQSYKMVNAGEGGILVTDDADLVARAVIMSGAYEHNWAKHVDGDDPALSEAFARWQNKLPLYNLRLSNLSAAVIRPQLPLLAERVRRGLENHDYVADKLNSSPVLSVPAPLVAETRAPDSIQFNLVGLSDDEVTRFAEAAAARGIKVQIFGKSADNARAFWNWQFLPGGAPELPRTRDMLMRACDVRLPVRLTRDELDLIANALLAAAAEVQGPLRVYGTEGHHHHHH | soluble
MANRLRTGIDVLDRKLDGGIPAGSIVVLSAQPASQAELFLYELTATRGTLWLSLDRTAESVIASIEQTPANTGDPTVRHISGEAPLDNAGKLVSALPETSNLIVDPLDVLEAQEPHSRFRAFMNDLQNHIVNTGSLAIVHCLDGRDVPPLRDTTEHFADVVFQLNTTTNGDEVENRLAIPKFRGGRAPTDIIKLNLVEEVSIDTSRDIALEHHHHHH | not soluble
